{"source": "paper PMC3795524", "key": {"[1]": {"biological_target": "KNH1144 SOSIP.R6 G-MPER gp140 (cleaved) (HIV-1 KNH1144 (subtype A))", "experiment": "native gel or EMSA"}, "[2]": {"biological_target": "KNH1144 SOSIP.R6 G-MPER gp140 (cleaved) (HIV-1 KNH1144 (subtype A))", "experiment": "AUC"}, "[3]": {"biological_target": "KNH1144 SOSIP.IEGR G-MPER gp140 (uncleaved) (HIV-1 KNH1144 (subtype A))", "experiment": "native gel or EMSA"}, "[4]": {"biological_target": "KNH1144 SOSIP.IEGR G-MPER gp140 (uncleaved) (HIV-1 KNH1144 (subtype A))", "experiment": "AUC"}}}
{"substance": "KNH1144 SOSIP.R6 G-MPER gp140 (cleaved) (complex)", "values": [{"measurement": "stoichiometry N", "setting": "[1]", "result": 3}, {"measurement": "stoichiometry N", "setting": "[2]", "result": 3}]}
{"substance": "KNH1144 SOSIP.IEGR G-MPER gp140 (uncleaved) (domain or fragment)", "values": [{"measurement": "stoichiometry N", "setting": "[3]", "result": 3}, {"measurement": "stoichiometry N", "setting": "[4]", "result": 3}]}
